B1: glucose oxidase (protein, UniProt P13006 17-605, looked up)
Glucose oxidase: LPHYIRSNGIEASLLTDPKDVSGRTVDYIIAGGGLTGLTTAARLTENPNISVLVIESGSYESDRGPIIEDLNAYGDIFGSSVDHAYETVELATNNQTALIRSGNGLGGSTLVNGGTWTRPHKAQVDSWETVFGNEGWNWDNVAAYSLQAERARAPNAKQIAAGHYFNASCHGVNGTVHAGPRDTGDDYSPIVKALMSAVEDRGVPTKKDFGCGDPHGVSMFPNTLHEDQVRSDAAREWLLPNYQRPNLQVLTGQYVGKVLLSQNGTTPRAVGVEFGTHKGNTHNVYAKHEVLLAAGSAVSPTILEYSGIGMKSILEPLGIDTVVDLPVGLNLQDQTTATVRSRITSAGAGQGQAAWFATFNETFGDYSEKAHELLNTKLEQWAEEAVARGGFHNTTALLIQYENYRDWIVNHNVAYSELFLDTAGVASFDVWDLLPFTRGYVHILDKDPYLHHFAYDPQYFLNELDLLGQAAATQLARNISNSGAMQTYFAGETIPGDNLAYDADLSAWTEYIPYHFRPNYHGVGTCSMMPKEMGGVVDNAARVYGVQGLRVIDGSIPPTQMSSHVMTVFYAMALKISDAILEDYASMQ
B2: SPION-GOx-Cy7: GOx-SPION tagged with a fluorescent dye (Cy7 moiety) (conjugate, UniProt P13006 17-605, looked up)
Glucose oxidase: B1 Glucose oxidase
modifications: SPION conjugate, Cy7 dye
B3: GOx-SPION: glucose oxidase conjugated to superparamagnetic iron oxide nanoparticle via Tz/TCO bioorthogonal ligation (conjugate, UniProt P13006 17-605, looked up)
Glucose oxidase: B1 Glucose oxidase
modifications: superparamagnetic iron oxide nanoparticle

Legend:
4T1 cells = experiment: In vivo therapeutic efficacy in 4T1 tumor-bearing mice; conditions: for tumor growth (relative tumor volume): 4T1 tumors, single tail vein injection, 21 days, SPION-GOx 5 mg/kg, SPION 5 mg/kg, GOx 8.5 nmol/kg
Description: 4T1 cells (2×10^5 cell/mouse) were implanted subcutaneously into the right shoulders of female balb/c mice (˜20 g). In vivo therapeutic efficacy experiments were performed when the tumor reached 6˜8 mm in average diameter (10 days after implant). 3-5 mice were randomly assigned to 4 groups, to which the following agents were administered via tail vein injection: Group A were administered with a mixture of unconjugated SPION and GOx at the dosage of 5 mg/kg and 8.5 nmol/kg respectively; Group B were administered with GOx at the dosage of 8.5 nmol/kg; Group C were administered with 200 μL saline as control; and Group D were administered with a single dose of 5 mg/mL SPION-GOx in saline at a dosage of 5 mg/kg. All the administration was made at about the same time of the day. The size and size distribution of SPION-GOx bioconjugates were determined using DLS before injection to ensure the conjugation was complete and no precipitation was formed in the suspension. The SPION-GOx PBS solution to be used on animal study was tested using a TMB assay to verify the effective generation of ROS. The weight and health conditions of the mice were monitored daily. The tumor sizes were measured and recorded every other day in the first 12 days, and then every 3 days until 21 days post injection, at which time point the tumors were harvested. The volumes of the tumors were calculated by the following equation: V=L×W^2/2.

ROS = experiment: TMB-based ROS activity assay; assay type: biochemical; conditions: in the presence of glucose, 37° C., 2 h, pH 4
Description: Production of ROS by the GOx-SPION bioconjugate was characterized by using a color agent 3,3′,5,5′-tetramethylbenzidine (TMB). TMB is known to be able to produce a blue color in the presence of ROS, which can be quantified by measuring the absorption at the wavelength of 650 nm. As a comparison, the levels of ROS produced by GOx and SPION alone, a mixture of GOx and SPION without conjugation, as well as the mAb-GOx-SPION bioconjugate were characterized.
The TMB-based ROS activity assay was carried out by using the following process. 20 μL SPION (5.0 mg/mL), GOx (1.0 mg/mL), a mixture of GOx (0.5 mg/mL) and SPION (2.5 mg/mL) without conjugation, GOx-SPION (5.0 mg/mL), and mAb-GOx-SPION (5.0 mg/mL) were each added into 380 μL of reaction buffer (0.1 M NaAc, pH 4, 50 μg TMB), followed by addition of either 100 μL of 100 mM glucose or 100 μL of DiH2O. After the mixtures were incubated at 37° C. for 2 h, the color change was detected with a Hitachi UV-Vis spectrophotometer.

[1] = system: 4T1 breast cancer xenografts; experiment: Biodistribution in mice with 4T1 breast cancer xenografts; assay type: in vivo; conditions: 150 μg, mice with 4T1 xenografts, 1 day after injection
Description: To visualize the biodistribution of GOx-SPION within mouse models, GOx-SPION was tagged with a fluorescent dye (Cy7 moiety). 150 μg of the resulting SPION-GOx-Cy7 bioconjugate was administered to 5 mice having 4T1 breast cancer xenografts. The biodistribution of the bioconjugates was imaged at 1 day, 3 days, 4 days, 5 days, 6 days, and 7 days after injection (see FIGS. 12A-12B).

Molecule	tumor growth (relative tumor volume) (4T1 cells)	production of ROS (peak height at 650 nm, TMB) (ROS)	biodistribution (uptake) [1]	side effects (weight loss or death) (4T1 cells; 4T1 tumor mice, 5 mg/kg tail vein)	body weight loss during treatment (4T1 cells; mouse, in vivo, 5 mg/kg)
B1	inhibited tumor growth to a much lesser extent	neither GOx nor SPION alone is able to produce ROS			
B2			initial uptake of the bioconjugates was to tumor cells		
B3	significant slowdown of tumor growth	synergistic activity between conjugated GOx and SPION		no severe side effects	did not experience any significant body weight loss

From patent US11931423B2, “Glucose oxidase-nanoparticle bioconjugates for cancer treatment” (UNIVERSITY OF PITTSBURGH—OF THE COMMONWEALTH SYSTEM OF …, priority 2017, dated 2024)
